Experimental data: doi:10.1101/2025.08.13.669967

Key:
[1] = biological target: Artemia franciscana ferritin (Artemia franciscana); assay: native gel or EMSA
[2] = biological target: Artemia franciscana ferritin (Artemia franciscana); assay: cryo-EM structure

stoichiometry N [1]: 24
stoichiometry N [2]: 24
Substance: Artemia franciscana ferritin (natural protein)
